Experimental data: patent publication US20250250362A1 (Chugai, published 2025)

Target: T1, soluble human GPC3 (human, UniProt P51654 25-563)
T1 construct: range 25-563; whole entry named for human GPC3 (NP_001158089.1); also called glypican 3
Assay: SPR (Biacore)

T1 sequence (P51654 25-563 limits assumed): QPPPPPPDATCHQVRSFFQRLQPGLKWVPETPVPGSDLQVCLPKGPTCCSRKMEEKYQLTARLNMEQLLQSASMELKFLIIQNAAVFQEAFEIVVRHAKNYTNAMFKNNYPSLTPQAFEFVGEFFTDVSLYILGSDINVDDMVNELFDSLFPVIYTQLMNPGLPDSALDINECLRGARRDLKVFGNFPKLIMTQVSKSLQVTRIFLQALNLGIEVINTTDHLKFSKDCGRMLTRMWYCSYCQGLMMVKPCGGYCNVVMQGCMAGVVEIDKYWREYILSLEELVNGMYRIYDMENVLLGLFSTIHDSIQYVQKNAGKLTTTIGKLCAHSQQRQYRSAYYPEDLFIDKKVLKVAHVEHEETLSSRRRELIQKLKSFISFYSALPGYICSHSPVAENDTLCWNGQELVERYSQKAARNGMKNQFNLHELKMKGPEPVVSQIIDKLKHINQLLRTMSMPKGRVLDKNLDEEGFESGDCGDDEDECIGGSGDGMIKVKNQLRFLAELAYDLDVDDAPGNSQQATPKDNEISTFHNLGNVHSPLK

B1: H0610-G1dh/none-Hi-Kn010G3/L0129-k0 (antibody, V domains shown)
VH: QVQLVQSGAEVKKPGASVKVSCKASGYTFTDYEMHWIRQPPGQGLEWIGAIDGKTPDTAYSQKFKGRVTLTADKSTSTAYMELSSLTSEDTAVYYCTRFYSYTYWGQGTLVTVSS
VL: DIVMTQSPLSLPVTPGEPASISCRSSQSLVHSNRNTYLHWYQQKPGQAPRLLIYKVSNRRSGVPDRFSGSGSGTDFTLKISRVEAEDVGVYYCGQGTQVPYTFGQGTKLEIK
notes: one-arm
  Kd: 4.54 nM
